Molecular target: H-2Kb MHC class 1 molecule on RMA-S cells (mouse (endogenous in RMA-S))
Experiment: peptide-induced MHC stabilisation assay

OVA peptide (SIINFEKL) synthesized with PCR-IVTT reaction
H-2Kb-positive cells: 55.3%

Reference: doi:10.1101/2024.05.07.593072
